The record followed here is publication PMC3287209 (Nucleic Acids Research, 2012).

The target of one data set is XLF wild-type (human, UniProt Q9H9Q4 1-299). Nature of the data set: native gel or EMSA.
The data set “crystal structure” concerns the molecule itself. Nature of the data set: crystal structure.

B1: XRCC4^1–157 (domain or fragment)
chain: MERKISRIHLVSEPSITHFLQVSWEKTLESGFVITLTDGHSAWTGTVSESEISQEADDMAMEKGKYVGELRKALLSGAGPADVYTFNFSKESCYFFFEKNLKDVSFRLGSFNLEKVENPAEVIRELICYCLDTIAENQAKNEHLQKENERLLRDWND
Take B1: the binding result with XLF wild-type is given as “binds”.

B2: XLF^1–224 (domain or fragment)
chain: MEELEQGLLMQPWAWLQLAENSLLAKVFITKQGYALLVSDLQQVWHEQVDTSVVSQRAKELNKRLTAPPAAFLCHLDNLLRPLLKDAAHPSEATFSCDCVADALILRVRSELSGLPFYWNFHCMLASPSLVSQHLIRPLMGMSLALQCQVRELATLLHMKDLEIQDYQESGATLIRDRLKTEPFEENSFLEQFMIEKLPEACSIGDGKPFVMNLQDLYMAVTTQ
With B2, the “stoichiometry N” value in “crystal structure” was determined as 2.
